Tests used:
[1] = molecular target: T1, recombinant human CYP1A1 expressed in HEK cells (human (H. sapiens), UniProt P04798 1-512); assay: immunoblot, HEK cell lysate with recombinant human CYP1A1
T1 construct: Bought over-expression lysate; also called OriGene LC400170
T1 sequence (looked up): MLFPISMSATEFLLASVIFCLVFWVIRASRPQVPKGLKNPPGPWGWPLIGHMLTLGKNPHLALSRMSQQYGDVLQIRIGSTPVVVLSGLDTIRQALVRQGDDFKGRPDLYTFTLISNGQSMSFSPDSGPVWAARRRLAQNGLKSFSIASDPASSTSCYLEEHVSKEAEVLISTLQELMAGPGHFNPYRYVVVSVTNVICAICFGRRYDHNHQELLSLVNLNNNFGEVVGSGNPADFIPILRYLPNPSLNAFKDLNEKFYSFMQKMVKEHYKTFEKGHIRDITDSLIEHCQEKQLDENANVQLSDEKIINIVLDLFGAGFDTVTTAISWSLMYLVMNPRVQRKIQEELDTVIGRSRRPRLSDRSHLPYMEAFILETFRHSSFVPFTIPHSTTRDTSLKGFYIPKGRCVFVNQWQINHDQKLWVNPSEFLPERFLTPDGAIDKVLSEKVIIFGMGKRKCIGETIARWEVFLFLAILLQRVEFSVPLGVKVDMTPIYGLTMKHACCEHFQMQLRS
Procedure: HEK cells were grown in media only as a cell-specific source of control cell lysate for comparison with over-expressed recombinant CYP1A1 in HEK cell lysates from the supplier.
Media was then removed from cells, replaced with 0.25% trypsin, and incubated until cells lifted from attachment. Cells were then pelleted by centrifugation to obtain a dry pellet, covered with ice-cold 300-400 μL RIPA buffer (Thermo Fisher, Waltham, MA, USA) supplemented with 2×HALT protease inhibitor cocktail (Pierce), followed by resuspension using a vortex device and placement on ice for 20 min. Suspensions were then sonicated, transferred to 1.5 mL tubes, and centrifuged 12,000×g for 20 min. Overlying supernatants were removed and transferred to clean tubes and the protein content quantified. Lysate protein concentration for each cell line, rat S9 fractions, and rainbow trout microsomes were matched between treated and controls, then boiled in reducing sample buffer for 7 min. Forty micrograms of each sample was then subjected to SDS-PAGE using 10-lane, 50 μL well capacity 4-20% pre-cast gels (Biorad, Richmond, CA, USA) and immunoblotting using standard procedures incorporating PDVF membranes. Immunoblots were blocked overnight with 10% horse serum (Gibco) in 0.01 M phosphate buffered saline (PBS) containing 0.05% tween twenty (PBS-T). […]

rat CYP1A = molecular target: T2, rat CYP1A (rat (R. norvegicus), UniProt P00185 2-524); assay: immunoblot, rat liver S9 fractions
T2 construct: Endogenous protein in liver S9 fraction, immunoblot; also called Rat liver S9 fraction, Arochlor-1254-induced
T2 sequence (looked up): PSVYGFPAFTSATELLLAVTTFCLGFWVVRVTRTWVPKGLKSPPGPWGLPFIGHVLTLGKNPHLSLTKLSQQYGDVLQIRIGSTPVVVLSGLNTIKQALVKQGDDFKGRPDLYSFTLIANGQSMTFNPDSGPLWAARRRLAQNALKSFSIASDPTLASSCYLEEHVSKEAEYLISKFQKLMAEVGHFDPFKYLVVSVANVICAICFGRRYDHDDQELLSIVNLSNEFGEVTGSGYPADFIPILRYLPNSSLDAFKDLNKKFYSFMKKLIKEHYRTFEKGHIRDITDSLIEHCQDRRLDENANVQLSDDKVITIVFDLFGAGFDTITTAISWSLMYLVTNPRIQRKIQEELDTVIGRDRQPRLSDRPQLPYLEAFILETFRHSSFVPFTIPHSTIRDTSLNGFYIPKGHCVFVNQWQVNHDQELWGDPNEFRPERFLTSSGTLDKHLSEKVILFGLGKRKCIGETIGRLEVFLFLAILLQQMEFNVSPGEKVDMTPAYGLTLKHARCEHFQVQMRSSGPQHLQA
Procedure: Lysate protein concentration for each cell line, rat S9 fractions, and rainbow trout microsomes were matched between treated and controls, then boiled in reducing sample buffer for 7 min. Forty micrograms of each sample was then subjected to SDS-PAGE using 10-lane, 50 μL well capacity 4-20% pre-cast gels (Biorad, Richmond, CA, USA) and immunoblotting using standard procedures incorporating PDVF membranes. Immunoblots were blocked overnight with 10% horse serum (Gibco) in 0.01 M phosphate buffered saline (PBS) containing 0.05% tween twenty (PBS-T). Membranes were washed once for 10 min with PBS-T, then probed for 2 h at room temperature (RT) with mAbs as confluent supernatants diluted 1:10 in PBS-T containing a final nominal concentration of 3 ug/mL antibody. […] After 3×washes with PBS-T, membranes were incubated with NBT-BCIP (Fisher Scientific, Pittsburgh, PA, USA) as the AP substrate and activity was visualized as dark blue banding of CYP1A at the expected size of approximately 55 kDa.

mouse CYP1A = molecular target: T3, mouse CYP1A (mouse (M. musculus), UniProt P00184 1-524); assay: IHC, liver of PCB-126 treated mouse
T3 construct: Endogenous protein in Hepa1c1c7 cell lysate (immunoblot) and fixed liver (IHC); also called HEPA1C1C7; mouse hepatoma cell line CYP1A
T3 sequence (looked up): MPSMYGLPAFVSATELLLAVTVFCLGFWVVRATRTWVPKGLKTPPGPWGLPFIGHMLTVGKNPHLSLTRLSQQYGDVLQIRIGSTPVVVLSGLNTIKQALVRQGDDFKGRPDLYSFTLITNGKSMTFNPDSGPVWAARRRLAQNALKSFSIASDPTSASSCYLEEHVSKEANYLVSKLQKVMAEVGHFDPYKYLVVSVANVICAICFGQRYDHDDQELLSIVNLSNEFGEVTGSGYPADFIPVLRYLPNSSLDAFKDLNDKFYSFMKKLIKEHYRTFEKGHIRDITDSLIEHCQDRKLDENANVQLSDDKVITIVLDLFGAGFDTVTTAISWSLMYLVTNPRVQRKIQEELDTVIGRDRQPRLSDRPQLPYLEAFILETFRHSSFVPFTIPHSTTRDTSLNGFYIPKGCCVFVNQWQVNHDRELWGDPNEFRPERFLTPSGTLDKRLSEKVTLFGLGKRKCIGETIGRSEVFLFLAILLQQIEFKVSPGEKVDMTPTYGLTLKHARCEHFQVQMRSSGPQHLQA
Procedure: Subsequently, slides were immersed in pH 9 Tris-EDTA buffer while heating by microwave on 100% power for 5 min followed by cooling for 5 min, followed by a final 5 min 100% power, then a final 20 min cool-down period in the container at room temperature. After antigen retrieval, tissues on slides were encircled with a Liquid Blocker Super mini pen to isolate tissue slices. Thus, each slide was divided into sections where one section can act as a reagent control by withholding a primary antibody. Additional screening assays included isotype controls. Once slides were divided, all sections were treated to quench endogenous peroxidase activity for 30 min using 3% H₂O₂ in water. […] After blocking, avidin-then biotin-blocking steps (15 min each) were conducted to allow specificity to target molecules only for the avidin-biotin binding. Next, the antibody, as a hybridoma supernatant diluted 1:10 in PBS with 0.5% FBS, was added dropwise to the slides and incubated overnight at 4° C. or for 2 h at RT. After incubation, the slides were washed prior to addition of the secondary (biotinylated) antibody for a 30 min incubation at RT. After washing, Vectastain ABC reagent was added for 30 min prior to staining.

Measured: binding result

B1: mAb CRC4 (antibody, mouse IgG1, kappa, V domains shown)
VH: QVTLKESGPGILQPSQTLSLTCSFSGFSLSTSGMGVNWIRKPSGKGLEWLAHIFWDDDKRYNPSLKSRLTISKDTSRNQVFLMITSVDTADTATYYCASLAMDYWGQGTSVTVSS
VL: DIVMTQGASSVTVTPGESVSISCRSSKSLLHSNGRTFLYWFLQRPGQSPQLLIYRMSNLASGVPDRVSGSGSGTAFTLRISRVEAEDVGVYYCMQHLEYPFTFGGGTRLELKR
notes: Mouse IgG1 kappa from a hybridoma, used as confluent hybridoma supernatant (nominally 3 ug/mL after 1:10 dilution); also called monoclonal antibody CRC4; CRC4_1
binds: all assays above
